Data set [1] relates to HeLa Kyoto. The data set is described as follows: solubility change mitosis vs G1/S (difference of NP-40 vs SDS log2 ratios) (log2 ratio difference); higher = more soluble in mitosis.
The subject of data set [2] is HeLa Kyoto. The data set is described as follows: thermal stability score vs G1/S (z-score of summed log2 fold changes over temperatures); higher = more thermally stable than in G1/S.
In data set [3] the test system is HeLa Kyoto. The data set is described as follows: melting temperature (median over replicates), in situ; higher = more thermally stable.
The subject of data set [4] is HeLa Kyoto. As to the kind of experiment: solubility in G1/S (NP-40 vs SDS abundance) (log2 ratio); higher = more soluble. As to conditions: cell cycle stage: G1/S.
[5] abbreviates: cell cycle stage: early G1 (4.5 h after nocodazole release).
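Wherever melting temperature (median over replicates), in situ is given: HeLa Kyoto cells synchronized by double thymidine or nocodazole block, proteins quantified by TMT10plex mass spectrometry, three independent biological replicates.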
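Wherever solubility change mitosis vs G1/S (difference of NP-40 vs SDS log2 ratios) is given: synchronized HeLa Kyoto cells (double thymidine block for G1/S, nocodazole release for mitosis), protein amounts in NP-40 versus SDS lysates quantified by mass spectrometry, three biological replicates.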
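Wherever solubility in G1/S (NP-40 vs SDS abundance) is given: HeLa Kyoto cells arrested at G1/S by double thymidine block, proteins quantified by TMT10plex mass spectrometry in mild NP-40 versus SDS extracts, three biological replicates.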
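Wherever thermal stability score vs G1/S (z-score of summed log2 fold changes over temperatures) is given: synchronized HeLa Kyoto cells, proteins quantified by TMT10plex mass spectrometry, three biological replicates, mitosis taken 0.5 h after nocodazole release, G1/S directly after double thymidine block.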

As for “MLFIFNFLFSPLPTPALICILTFGAAIFLWLITRPQPVLPLLDLNNQSVGIEGGARKGVSQKNNDLTSCCFSDAKTMYEVFQRGLAVSDNGPCLGYRKPNQPYRWLSYKQVSDRAEYLGSCLLHKGYKSSPDQFVGIFAQNRPEWIISELACYTYSMVAVPLYDTLGPEAIVHIVNKADIAMVICDTPQKALVLIGNVEKGFTPSLKVIILMDPFDDDLKQRGEKSGIEILSLYDAENLGKEHFRKPVPPSPEDLSVICFTSGTTGDPKGAMITHQNIVSNAAAFLKCVEHAYEPTPDDVAISYLPLAHMFERIVQAVVYSCGARVGFFQGDIRLLADDMKTLKPTLFPAVPRLLNRIYDKVQNEAKTPLKKFLLKLAVSSKFKELQKGIIRHDSFWDKLIFAKIQDSLGGRVRVIVTGAAPMSTSVMTFFRAAMGCQVYEAYGQTECTGGCTFTLPGDWTSGHVGVPLACNYVKLEDVADMNYFTVNNEGEVCIKGTNVFKGYLKDPEKTQEALDSDGWLHTGDIGRWLPNGTLKIIDRKKNIFKLAQGEYIAPEKIENIYNRSQPVLQIFVHGESLRSSLVGVVVPDTDVLPSFAAKLGVKGSFEELCQNQVVREAILEDLQKIGKESGLKTFEQVKAIFLHPEPFSIENGLLTPTLKAKRGELSKYFRTQIDSLYEHIQD [ACSL5]”, the “solubility change mitosis (log2)” value in the data set with HeLa Kyoto [1] was -0.0802. In addition, the thermal stability score in the data set with HeLa Kyoto [2] (setting [5]) was -0.104; with HeLa Kyoto [2] (cell cycle stage: mitosis), -0.53. The results for the melting temperature with HeLa Kyoto [3] (cell cycle stage: G1/S) and in the data set on HeLa Kyoto [3] (cell cycle stage: mitosis) were 51.8 °C and 51.1 °C, respectively. The “solubility in G1/S (log2)” value in the data set with HeLa Kyoto [4] is -0.0641.
“MLFLALGSPWAVELPLCGRRTALCAAAALRGPRASVSRASSSSGPSGPVAGWSTGPSGAARLLRRPGRAQIPVYWEGYVRFLNTPSDKSEDGRLIYTGNMARAVFGVKCFSYSTSLIGLTFLPYIFTQNNAISESVPLPIQIIFYGIMGSFTVITPVLLHFITKGYVIRLYHEATTDTYKAITYNAMLAETSTVFHQNDVKIPDAKHVFTTFYAKTKSLLVNPVLFPNREDYIHLMGYDKEEFILYMEETSEEKRHKDDK [TMEM70]”: in the data set with HeLa Kyoto [1], the “solubility change mitosis (log2)” value is -0.344. Moreover, the thermal stability score with HeLa Kyoto [2] (setting [5]) was 0.217; in the data set with HeLa Kyoto [2] (cell cycle stage: mitosis) it was -1.65. The melting temperature in the data set on HeLa Kyoto [3] (cell cycle stage: G1/S) came out at 54.1 °C; with HeLa Kyoto [3] (cell cycle stage: mitosis), 53.4 °C. Further, the “solubility in G1/S (log2)” value in the data set with HeLa Kyoto [4] is -0.0239.
As for “MLFYSFFKSLVGKDVVVELKNDLSICGTLHSVDQYLNIKLTDISVTDPEKYPHMLSVKNCFIRGSVVRYVQLPADEVDTQLLQDAARKEALQQKQ [LSM2]”, the “solubility change mitosis (log2)” value in the data set on HeLa Kyoto [1] amounted to 0.0659. Besides, the thermal stability score is -1.17 in the data set with HeLa Kyoto [2] (setting [5]) and -1.99 with HeLa Kyoto [2] (cell cycle stage: mitosis). Further, the melting temperature is 59.9 °C in the data set on HeLa Kyoto [3] (cell cycle stage: G1/S) and 57.5 °C in the data set with HeLa Kyoto [3] (cell cycle stage: mitosis). Besides, the “solubility in G1/S (log2)” value in the data set on HeLa Kyoto [4] was -0.0676.
As to “MLGMIKNSLFGSVETWPWQVLSKGDKEEVAYEERACEGGKFATVEVTDKPVDEALREAMPKVAKYAGGTNDKGIGMGMTVPISFAVFPNEDGSLQKKLKVWFRIPNQFQSDPPAPSDKSVKIEEREGITVYSMQFGGYAKEADYVAQATRLRAALEGTATYRGDIYFCTGYDPPMKPYGRRNEIWLLKT [HEBP1]”, the “solubility change mitosis (log2)” value in the data set with HeLa Kyoto [1] stood at 0.0399. Further, the figures for the thermal stability score with HeLa Kyoto [2] (setting [5]) and in the data set on HeLa Kyoto [2] (cell cycle stage: mitosis) were -1.08 and -2.04, respectively. For the same sequence, the melting temperature in the data set on HeLa Kyoto [3] (cell cycle stage: G1/S) was determined as 52.9 °C; in the data set with HeLa Kyoto [3] (cell cycle stage: mitosis) it was 53.3 °C. For the same sequence, the “solubility in G1/S (log2)” value in the data set on HeLa Kyoto [4] is 0.27.
Consider “MLGPHLPPPPLAPSEGRPTPCAFQIPDGSYRCLALEAEESSGEEGLQGEVGPTDLEEDEGVSRSGDDSACRVTQGTPQLPKALGIQPPSCSREEQGASQHDDRASQDWDVVKAGQMMTASPSPGPGPRVAQKPALGRSTSLTEKDLKEAKARSQQIAAQLTTPPSSNSRGVQLFNRRRQRVNEFTLESHGQRGQKPSQESLRVLPSSLPGHAPGLSLSSTSLPEPGPPRHPSPQSPDRGVPGHSMEGYSEEASLLRHLEKVASEEEEVPLVVYLKENAALLTANGLHLSQNREAQQSSPAPPPAEVHSPAADVNQNLASPSATLTTPTSNSSHNPPATDVNQNPPATVVPQSLPLSSIQQNSSEAQLPSNGTGPASKPSTLCADGQPQAPAEEVRCSTLLIDKVSTPATTTSTFSREATLIPSSRPPASDFMSSSLLIDIQPNTLVVSADQEMSGRAAATTPTKVYSEVHFTLAKPPSVVNRTARPFGIQAPGGTSQMERSPMLERRHFGEKAPAPQPPSLPDRSPRPQRHIMSRSPMVERRMMGQRSPASERRPLGNFTAPPTYTETLSTAPLASWVRSPPSYSVLYPSSDPKSSHLKGQAVPASKTGILEESMARRGSRKSMFTFVEKPKVTPNPDLLDLVQTADEKRRQRDQGEVGVEEEPFALGAEASNFQQEPAPRDRASPAAAEEVVPEWASCLKSPRIQAKPKPKPNQNLSEASGKGAELYARRQSRMEKYVIESSSHTPELARCPSPTMSLPSSWKYPTNAPGAFRVASRSPARTPPASLYHGYLPENGVLRPEPTKQPPYQLRPSLFVLSPIKEPAKVSPRAASPAKPSSLDLVPNLPKGALPPSPALPRPSRSSPGLYTSPGQDSLQPTAVSPPYGGDISPVSPSRAWSPRAKQAPRPSFSTRNAGIEAQVWKPSFCFK [SYNPO]”, for which the “solubility change mitosis (log2)” value in the data set on HeLa Kyoto [1] came out at 1.62. For the same sequence, the thermal stability score is -0.595 in the data set with HeLa Kyoto [2] (setting [5]) and -3 with HeLa Kyoto [2] (cell cycle stage: mitosis). In the data set on HeLa Kyoto [3] (cell cycle stage: mitosis), this sequence returned a melting temperature of 52.8 °C. Also, in the data set with HeLa Kyoto [4], the “solubility in G1/S (log2)” value was -1.65.

The values are drawn from the supplement of paper PMC5998384.
